Measurements: paper doi:10.1101/2024.04.27.591446 (bioRxiv, 2024)

How the values were obtained:
[1] = biological target: SARS-CoV-2 EG5.1 S ectodomain with 6P and furin mutations, trimer (SARS-CoV-2 Omicron EG.5.1, stabilised); assay: cryo-EM structure
[2] = biological target: SARS-CoV-2 Spike Wuhan-Hu-1 (SARS-CoV-2 Wuhan-Hu-1, UniProt P0DTC2); assay: ELISA

B1: 1301B7 Fab (Fab, V domains shown)
VH: EVQLVESGAEVKNPGSSVKVSCKASEGTFGSYPIIWVRQAPGQGLEWVGGIIPILGTVIYAQKFQGRVTITGDTYAGSAHMELSGLRSEDTAVFYCARGSYDYGDRLLNYTYYAMDVWGPGTTVTVSS
VL: QPGLTQPPSVSGAPGQRVTISCTGSRSNIGAVYAVHWYQHVPGAAPKLLIYENNNRPSGIPDRFSGSKSGTSASLVITGLQAEDEADYLCQSYDRSVGVVFGGGTRLTVL
stoichiometry N [1]: 1 Fab per Spike trimer

B2: 1301B7 recombinant human monoclonal antibody (hmAb), IgG1 (antibody, V domains shown)
VH: EVQLVESGAEVKNPGSSVKVSCKASEGTFGSYPIIWVRQAPGQGLEWVGGIIPILGTVIYAQKFQGRVTITGDTYAGSAHMELSGLRSEDTAVFYCARGSYDYGDRLLNYTYYAMDVWGPGTTVTVSS
VL: QPGLTQPPSVSGAPGQRVTISCTGSRSNIGAVYAVHWYQHVPGAAPKLLIYENNNRPSGIPDRFSGSKSGTSASLVITGLQAEDEADYLCQSYDRSVGVVFGGGTRLTVL
binding result [2]: binds
